These results are taken from EP1876240B1.

The target in test [1] is human GPVI extracellular region-human Fc fusion protein (hGPVI-hFc) (human). Briefly: ELISA on immobilised hGPVI-hFc; +++ absorbance more than 2.0.
The target is the same in test [2]. Briefly: SPR (BIACORE3000) as in Example 5. A general note: SPR reads the build-up and loss of mass on a sensor chip optically.
Test [3] shares this target. Put plainly: ELISA on immobilised hGPVI-hFc; ++ absorbance 1.0 to 2.0. In general terms: ELISA stands for enzyme-linked immunosorbent assay.
The target is the same in test [4]. Put plainly: SPR (BIACORE 3000), hGPVI-hFc on CM5 chip, 0-800 nM, 1:1 binding fit.
In test [5] the target is rat GPVI-human Fc (rGPVI-hFc) (rat; mouse). Put plainly: ELISA on immobilized antigen; control.
In test [6] the target is human GPVI extracellular region-human Fc fusion protein (hGPVI-hFc) (human). Briefly: ELISA on immobilised hGPVI-hFc; + absorbance 0.5 to 1.0.

Changes are numbered by the printed parent chain. A value given as a limit tells only on which side of the number the result lay.

Chain of human GPVI extracellular region-human Fc fusion protein (hGPVI-hFc) (human) (chain, as listed by the source limits assumed): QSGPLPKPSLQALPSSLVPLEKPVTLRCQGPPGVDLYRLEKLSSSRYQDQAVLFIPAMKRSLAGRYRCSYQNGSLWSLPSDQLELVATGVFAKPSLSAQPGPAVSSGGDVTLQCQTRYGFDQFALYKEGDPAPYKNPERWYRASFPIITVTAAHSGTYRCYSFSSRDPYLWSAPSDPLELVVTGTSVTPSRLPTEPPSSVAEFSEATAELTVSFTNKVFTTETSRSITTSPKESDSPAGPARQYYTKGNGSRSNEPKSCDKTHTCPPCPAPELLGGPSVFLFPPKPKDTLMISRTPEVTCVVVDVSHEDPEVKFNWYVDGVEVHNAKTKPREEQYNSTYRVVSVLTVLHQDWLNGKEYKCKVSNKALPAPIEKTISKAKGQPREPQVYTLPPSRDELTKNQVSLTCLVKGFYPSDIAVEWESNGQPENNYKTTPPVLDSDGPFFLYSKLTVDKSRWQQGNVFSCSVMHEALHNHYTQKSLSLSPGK

B1: F1249-18-2 (antibody, V domains shown)
VH: QVQLQQPGAELVKPGASVKLSCKASGYTFTSYWMHWLKQRPGQGLEWIGMIHPNSDITNYNEKFKNKATLTVDKSSSTAYMQLSSLTSEDSAVYYCARSGDYYAMDYWGQGTSVTVSS
VL: SIVMTQTPKFLLVSAGDRVTITCKASQSVSNDVAWYQQKPGQSPKLLIYYASNRYTGVPDRFTGSGYGTDFTFTISTVQAEDLAVYFCQQDYSSPPTFGGGTKLEIKR
For B1, the absorbance in test [1] is over 2 od. In test [2], this molecule showed a KD (Relative value) against F1232-37-2 (relative to KD of F1232-37-2) of 0.00103.

B2: F1245-4-1 (antibody, V domains shown)
VH: QVQLQQPGAELVKPGASVKLSCKASGCTFTSYWMHWVKQRPGQGLEWIGMIHPNSDNTNYNEKFKSKATLTVDKSSSTAYMHLSSLTSEDSAVYYCATHYYDYVDYWGQGTTLTVSS
VL: B1 VL with S1N, P96W
As to B2, the absorbance in test [1] was over 2 od. In test [2], this molecule gave a KD (Relative value) against F1232-37-2 (relative to KD of F1232-37-2) of 0.00427.

B3: F1249-5-1 (antibody, V domains shown)
VH: B1 VH with D73A, S99L
VL: B1 VL with A34T
For the molecule B3, the absorbance in test [3] lay in the range of 1 to 2 od. The same molecule registered a KD (Relative value) against F1232-37-2 (relative to KD of F1232-37-2) in test [2] of 0.00285.

B4: F1245-5-1 (antibody, V domains shown)
VH: QVQLQQPGAELVKPGASVKLSCKASGYTFISYWMHWVKQRPGQGLEWIGMIHPNSGSTHYNEKFKSKATLTVDKSSSTAYMQLSSLTSEDSAVYYCARGGVTPVAYWGQGTLVTVSA
VL: B1 VL with P96W
In test [3], B4 registered an absorbance of 1 to 2 od. In test [2], the KD (Relative value) against F1232-37-2 (relative to KD of F1232-37-2) came out at 1.43.

B5: F1232-37-2 Fab (Fab, V domains shown)
VH: VQLQQSGPELVRPGESVKISCKGSGYTFTDYAIHWVKLSHAKSLEWIGVISIYYDDTNYNQKFKGKATMTVDKSSSTAYLELARLTSEDSAIYYCARRRDSSGPYAMDYWGQGTSVTVSS
VL: DIVLTQSPASLAVSLGQRATISCRASESVDSYGNSFMHWYQQKPGQPPKLLIYRASNLESGIPARFSGSGSRTDFTLTINPVEADDVATYYCQQSNEDPYTFGGGTKLEIKR
In turn, B5 displayed a dissociation constant relative to whole antibody (defined as one) (relative to KD of whole F1232-37-2) in test [4] of 0.6.

B6: F1249-20-1 (antibody, V domains shown)
VH: QVQLQQSGAELVRPGVSVKISCKGSGYTFTDYAMHWVKQSHAKSLEWIGVISTYYGDTSYNQKFKGKATMTVDKSSSTAYMELARLTSEDSAIYYCARAEDYDPWFAYWGQGTLVTVSA
VL: B5 VL with H38Y, N96D, Y100L, G104A, I110L
Turning to B6, the absorbance in test [1] was over 2 od. This molecule showed a KD (Relative value) against F1232-37-2 (relative to KD of F1232-37-2) in test [2] of 0.00205.

B7: F1249-30-1 (antibody, V domains shown)
VH: B6 VH with T69A, E89D
VL: B5 VL with N96D, Y100L, G104A, I110L
In turn, B7 displayed an absorbance in test [1] of over 2 od. In addition, the KD (Relative value) against F1232-37-2 (relative to KD of F1232-37-2) in test [2] came out at 0.347.

B8: F1246-1-1 (antibody, V domains shown)
VH: EVQLVESGGDLVKPGGSLKLSCAASGFTFSSYGMSWVRQTPDKRLEWVATISNGGTYTYYPDSVKGRFTISRDNAKNTLYLQMSSLKSDDTAMYYCGRLRDYYAMDYWGQGTSVTVSS
VL: B5 VL with Y100W
The molecule B8 had an absorbance in test [3] of 1 to 2 od. Moreover, the KD (Relative value) against F1232-37-2 (relative to KD of F1232-37-2) in test [2] turned out to be 0.884.

B9: F1249-24-1 (antibody, V domains shown)
VH: B6 VH
VL: B5 VL with N96D, Y100L, G104A, I110L
The molecule B9 had an absorbance in test [1] of over 2 od. The KD (Relative value) against F1232-37-2 (relative to KD of F1232-37-2) in test [2] turned out to be 0.00821.

B10: F1232-37-2 (antibody, V domains shown)
VH: B5 VH
VL: B5 VL
For B10, in test [5], the absorbance (ELISA) was 0.137.

B11: F1245-6-2 (antibody, V domains shown)
VH: B4 VH with I30T, H59N
VL: SIVMTQTPKFLLVSAGDRVTITCKASQSVSNDVAWYQQKPGQSPKLLIYYASNRYTGVPYRFTGSGYGTDFTFTISTVQAEDLAVYFCQQDYSSPWTFGGGTKLEIK
Turning to B11, the absorbance in test [3] fell in the range of 1 to 2 od. In test [2], the KD (Relative value) against F1232-37-2 (relative to KD of F1232-37-2) is 0.122.

B12: F1257-3-1 (antibody, V domains shown)
VH: QVTLKESGPGMLQPSKTLSLTCSFSGFSLSTSGMVVSWIRQPSGKSLEWLAAIDWDGDKYYNPSLKSRLTVSKDTSNTQVFLKISSVDIADTATYYCARTPYYGYKEAYYFDYWGQGVKVTVSS
VL: DIQMTQSPASLSASLEEIVTITCKASRAIDDYLSWYQQKPGKSPQLLIYDATSLADGVPSRFSGSRSGTQYSLKISRPQVDDSGIYYCLQSYSTPWTFGGGTKLDLKR
Turning to B12, in test [1], the absorbance was over 2 od. In addition, the KD (Relative value) against F1232-37-2 (relative to KD of F1232-37-2) in test [2] is 0.00298.

B13: F1251-1-1 (antibody, V domains shown)
VH: QVNLLQSGAALVKPGASVKLSCKASGYTFTDYYIHWVKQSHGKSLEWIGYINPNSGYTNYNEKFKSKATLTVDKSTNTAYMELSRLTSEDSATYYCTRCNSGYGDWFAYWGQGTLLTVSS
VL: DIQMTQSPPVLSASVGDRVTLSCKASQNINKNLDWYQQKHGEAPKLLIYYTNNLQTDIPSRFSGSGSGTDYTLTISSLQPEDVATFYCYQYNSGPGTFGAGTKLELKR
Take B13: in test [6], the absorbance was in the range of 0.5 to 1 od. This molecule displayed a KD (Relative value) against F1232-37-2 (relative to KD of F1232-37-2) in test [2] of 7.9.

B14: F1245-7-1 (antibody, V domains shown)
VH: QVQLQQPGAELVKPGASVKLSCKASGYTFTSYWMHWVKQRPGQGLEWIGMIHPNSGSTNYNEKFKSKATLTVDKSSSTAYMQLSSLTSEDSAVYYCASPVTAVVEYYFDYWGQGTTLTVSS
VL: SIVMTQTPKFLLVSAGDRVTITCKASQSVSNDVAWYQQKPGQSPKLLIYYASNRYTGVPDRFTGSGYGTDFTFTISTVQAEDLAVYFCQQDYSSLTFGSGTKLEIKR
B14 came in with an absorbance in test [3] of 1 to 2 od. In test [2], the KD (Relative value) against F1232-37-2 (relative to KD of F1232-37-2) stood at 0.00293.
